In patent US7479276:

Legend:
[1] = target: human transferrin receptor (TfR) (human) (UniProt P02786); test: FACS on DU145 cells, percent of cells above the fluorescence threshold
[2] = target: human transferrin receptor (TfR) (human) (UniProt P02786); test: FACS on JSQ-3 cells, percent of cells above the fluorescence threshold
[3] = target: human transferrin receptor (TfR) (human) (UniProt P02786); test: indirect cellular ELISA on fixed JSQ-3 cells; highest concentration of Hb21 (100 µl), positive control
[4] = target: human transferrin receptor (TfR) (human) (UniProt P02786); test: indirect cellular ELISA on fixed JSQ-3 cells, anti-His detection
[5] = target: human transferrin receptor (TfR) (human) (UniProt P02786); test: indirect cellular ELISA on fixed JSQ-3 cells, anti-His detection; 3 µg of protein
[6] = target: human transferrin receptor (TfR) (human) (UniProt P02786); test: indirect cellular ELISA on fixed JSQ-3 cells, anti-His detection; 0.6 µg of protein
[7] = target: human transferrin receptor (TfR) (human) (UniProt P02786); test: indirect cellular ELISA on fixed JSQ-3 cells, anti-His detection; 1.5 µg of protein

Chain of human transferrin receptor (TfR) (human) (P02786 whole entry): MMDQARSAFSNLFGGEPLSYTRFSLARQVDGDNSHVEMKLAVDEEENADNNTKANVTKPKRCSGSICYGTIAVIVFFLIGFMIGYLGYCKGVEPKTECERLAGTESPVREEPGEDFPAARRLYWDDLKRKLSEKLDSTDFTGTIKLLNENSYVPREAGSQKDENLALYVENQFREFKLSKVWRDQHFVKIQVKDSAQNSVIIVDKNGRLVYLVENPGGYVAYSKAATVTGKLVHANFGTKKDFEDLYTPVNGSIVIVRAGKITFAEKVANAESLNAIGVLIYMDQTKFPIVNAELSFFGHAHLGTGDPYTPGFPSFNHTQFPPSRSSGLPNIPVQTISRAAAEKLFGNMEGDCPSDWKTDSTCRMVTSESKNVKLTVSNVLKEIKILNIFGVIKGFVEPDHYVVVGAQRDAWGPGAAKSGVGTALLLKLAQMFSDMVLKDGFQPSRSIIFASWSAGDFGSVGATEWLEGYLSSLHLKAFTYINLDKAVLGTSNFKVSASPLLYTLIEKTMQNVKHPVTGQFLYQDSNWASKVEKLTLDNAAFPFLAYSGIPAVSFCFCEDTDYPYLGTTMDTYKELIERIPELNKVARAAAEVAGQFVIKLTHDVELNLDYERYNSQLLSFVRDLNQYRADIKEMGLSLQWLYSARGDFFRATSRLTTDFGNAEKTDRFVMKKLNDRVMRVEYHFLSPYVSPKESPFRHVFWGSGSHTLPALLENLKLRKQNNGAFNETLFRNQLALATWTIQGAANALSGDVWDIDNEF

Row | % Positive [1] [%] | % Positive [2] [%] | OD490 [3] [OD490] | OD490 [4] [OD490] | OD490 [5] [OD490] | OD490 [6] [OD490] | OD490 [7] [OD490] | Substance
1 | 98.7 | 99.4 | 0.033 | – | – | – | – | HB21 anti-transferrin receptor monoclonal antibody
2 | – | – | – | 0.235 | 0.132 | 0.06 | 0.1 | TfRscFv containing a C-terminal cysteine, with a His tag
